Measured values as given in patent US8017829.

Tested on: Cre recombinase (bacteriophage P1?)
Test: cell_activity
Settings: rice plant crosses; excision confirmed by Southern blot

Substance: lox site
- activity (% GUS+ progeny (19/75)): 25.3
